Data published in the supplement of paper PMC12042874.
± gives the uncertainty stated by the source.

Assay: amyloid nucleation score (Sup35N fusion, yeast selection) (log enrichment); library NNK2; higher = more nucleation; inactive = no reads after selection
How it was run: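 On medium lacking adenine and uracil, psi-negative yeast expressing peptides of 20 random codons fused to Sup35N were grown 7 days at 30°C after a 24-hour induction with 100 μM copper sulfate. Illumina sequencing of input and output plasmid inserts gave the reads, and sequences under 100 input reads were excluded. The nucleation score is the DiMSum log enrichment of output over input reads, centred on the mode score of non-aggregating sequences.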

Substance	amyloid nucleation score
AALCRMFWTAISYWCEWSLG	0.157 ± 0.55
AANDMPMNSPIFSLGSDMPH	1.01 ± 0.48
AANRPGTSC	0.767 ± 0.74
AASRWTWC	1.5 ± 0.16
ACDVNWLMNTIHQNNCCFAH	-0.716 ± 1.1
ACILSVYFS	2.12 ± 0.15
ADCVSICVSYRRFHLAKYR	2.73 ± 0.11
ADHVDAYSFRDNDLSYQVYL	1.41 ± 0.46
ADIAYFRLVMLKHTIYPVHM	1.82 ± 0.27
ADNFICIIETYSYILVWRSS	-0.552 ± 0.78
ADSCKVMKWDRRPLEDFNWC	-0.041 ± 0.19
ADSVLYNCVCRFSSVPQVLR	-0.263 ± 0.31
AEANLNFGLMDGAMSVKRAE	-0.329 ± 0.55
AESWVNYRGRDV	0.472 ± 0.8
AETTFNIENDKTYIIYDCAE	-0.161 ± 0.39
AEWLINGISDGLDCVSFSNS	inactive
AEYRNDMAIEVSSSYCCGY	3.43 ± 0.082
AFGNNDDLGARRYGMATPGR	0.746 ± 0.62
AFLRFMKRRQLNLLKYAFCC	4.01 ± 0.084
AFNCT	-0.684 ± 0.78
AFPLRTVISGN	0.484 ± 0.8

Substance	amyloid nucleation score
AFPPE	-0.726 ± 1.1
AFPTKCNVRSMSMHRLLLLC	inactive
AFRFWFHGSMLVAHLSSWYY	2.88 ± 0.083
AFSLCFRYYLPRVNASG	-0.147 ± 1.1
AFSMRVGDFEIHRFSVVFRR	-0.247 ± 0.53
AFSSLFWIWIPSNMRSQVLK	0.124 ± 0.42
AFTACRYMVSPFFSLMFSTS	0.265 ± 1.1
AFVLRVNYNLNTRGYVSLFK	2.14 ± 0.14
AFWLL	1.81 ± 0.093
AGDTLWNGGMVEWFVWRLPG	0.178 ± 0.74
AGIFQNSRRNPYRVYMMSVY	3.31 ± 0.06
AGMGRSVWSKRFRDISRVSS	0.511 ± 0.56
AGSLRR	1.51 ± 0.41
AGVCCSVSNILWKCTSSSNG	9.932 ± 0.023
AGWRLVTQDRLSLLNQTDVF	1.05 ± 0.36
AGYDATW	0.461 ± 0.65
AGYIVIALSRCCTDSRPNRV	inactive
AHSKHPGTYGQFMSEQSGEA	0.767 ± 0.51
AIITLYSNHKLYLWALLLDA	-0.47 ± 1.1
AIKESRCDIVIRRKWSSLKT	-0.02 ± 1.1
AILSNVEVLYTRFRIKSCKL	-0.435 ± 0.34

Substance	amyloid nucleation score
AIRADTDFDYTIEGSVDGGG	-0.199 ± 0.63
AIRRYIVKAPLLCES	1.75 ± 0.47
AIRVLCKEYSQSDRMNEWLN	inactive
AISILNCSMMLRIWPSTAAL	0.059 ± 0.5
AISLYMFVRDIAKSILRQVC	0.269 ± 0.5
AISPVGYCDSTFVFSTSLCG	4.13 ± 0.12
AKFMGLCRDKGLQLC	-0.331 ± 0.55
AKPRYN	0.221 ± 0.42
AKVACKDGLHACESESGFIW	1.54 ± 0.3
AKVNCISIITEDILILSEMV	inactive
ALCGCPCRKPSATVINLPLF	0.165 ± 0.37
ALDFSRSRDKGG	1.42 ± 0.23
ALERWS	0.024 ± 0.74
ALFIRVYMLFRRCEECSLQV	7.575 ± 0.055
ALGSRSTDSGSWITNFLSSR	-0.213 ± 0.79
ALGVGVDFVKVWRNRGLAGG	0.459 ± 0.51
ALMEKSTSNLLFCHLDCASD	3.24 ± 0.071
ALMHTNGTV	-0.406 ± 1.1
ALMNPHFFSWCLKMVGYGYR	inactive
ALNYVSCWNALRKFRESVAH	inactive
ALPVLIINERTRWGVTLLLP	0.421 ± 0.39

Substance	amyloid nucleation score
ALRVLFLVVWSEHDDCYCGG	0.665 ± 0.42
ALSSFT	-1.28 ± 0.78
ALTPGYPSGARVP	0.307 ± 0.49
ALWFLLKQSGARYLDLAIPG	-0.06 ± 1.1
AMLDLRINTSRAGSHSRVVT	2.81 ± 0.069
AMQLCSFTPFSTYNFLSYDS	-0.685 ± 0.37
AMSFGCSAWYTSYRDMFCRG	3.17 ± 0.15
ANFQIFDLLME	-0.061 ± 0.43
ANLLKTRRVMYRGFG	0.611 ± 0.38
ANMCELVLLELVIELRGGLA	3.28 ± 0.088
ANMCPYAHRVTGVMFCLLPW	inactive
ANNVSGIIVCTNFDILMYGR	7.791 ± 0.042
ANSVNRSKDCTYFVFHRF	5.436 ± 0.054
ANWPR	-0.391 ± 0.79
APANVRWLNFSGLDSNGCPY	inactive
APHGLRKHSIMVAGMLRSVG	2.68 ± 0.14
APSVLGAYQIHRGRVHVLSA	0.494 ± 0.29
APTCSKCCIFMQC	5.99 ± 0.072
AQNYYMY	6.88 ± 0.087
AQWSRIDCNTLCKAVPISLA	5.773 ± 0.056
ARFSKHHLTKVLFGKDYQAP	0.235 ± 0.34
